Assays:
co-activator AIB/ACTR = co-activator AIB/ACTR (Homo sapiens, UniProt Q9Y6Q9); assay: GST-protein-interaction test; assay type: binding; conditions: in vitro
androgen receptor = target: T1, androgen receptor (Homo sapiens, UniProt P10275); assay: androgen receptor co-activation, MMTV-LUC or proteasin-Luc reporter, transient transfection; assay type: cell-based; conditions: 293 cells; with R1881; increasing amount of SLIM3-expression plasmid
T1 construct: expressed in transfected cells; host or cells: 293 cells
T1 sequence (P10275 1-920): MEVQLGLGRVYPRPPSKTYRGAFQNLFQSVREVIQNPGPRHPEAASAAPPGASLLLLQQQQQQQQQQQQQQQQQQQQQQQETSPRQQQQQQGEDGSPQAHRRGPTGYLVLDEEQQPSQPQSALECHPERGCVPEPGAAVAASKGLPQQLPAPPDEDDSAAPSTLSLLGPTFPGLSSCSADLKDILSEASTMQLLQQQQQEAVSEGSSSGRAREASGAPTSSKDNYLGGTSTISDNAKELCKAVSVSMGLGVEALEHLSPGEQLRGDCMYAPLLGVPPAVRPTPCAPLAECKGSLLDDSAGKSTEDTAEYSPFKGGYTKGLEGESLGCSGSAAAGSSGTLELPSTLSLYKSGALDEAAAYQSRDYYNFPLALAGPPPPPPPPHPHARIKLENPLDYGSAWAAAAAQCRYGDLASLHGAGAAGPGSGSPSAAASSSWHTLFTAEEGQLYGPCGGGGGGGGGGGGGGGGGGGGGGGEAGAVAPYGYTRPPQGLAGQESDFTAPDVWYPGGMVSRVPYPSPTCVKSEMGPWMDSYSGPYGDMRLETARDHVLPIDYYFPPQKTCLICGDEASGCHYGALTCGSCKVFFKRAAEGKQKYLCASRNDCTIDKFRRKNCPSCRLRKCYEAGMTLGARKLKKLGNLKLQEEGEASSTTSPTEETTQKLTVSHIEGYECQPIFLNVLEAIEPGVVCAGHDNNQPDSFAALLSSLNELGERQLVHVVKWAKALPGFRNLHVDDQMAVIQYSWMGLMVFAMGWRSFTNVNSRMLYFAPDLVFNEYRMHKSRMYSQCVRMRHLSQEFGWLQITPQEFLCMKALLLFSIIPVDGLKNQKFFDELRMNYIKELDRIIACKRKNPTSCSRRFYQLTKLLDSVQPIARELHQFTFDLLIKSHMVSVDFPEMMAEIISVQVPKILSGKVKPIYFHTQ
T1 sequence (Q14192 1-279 partner): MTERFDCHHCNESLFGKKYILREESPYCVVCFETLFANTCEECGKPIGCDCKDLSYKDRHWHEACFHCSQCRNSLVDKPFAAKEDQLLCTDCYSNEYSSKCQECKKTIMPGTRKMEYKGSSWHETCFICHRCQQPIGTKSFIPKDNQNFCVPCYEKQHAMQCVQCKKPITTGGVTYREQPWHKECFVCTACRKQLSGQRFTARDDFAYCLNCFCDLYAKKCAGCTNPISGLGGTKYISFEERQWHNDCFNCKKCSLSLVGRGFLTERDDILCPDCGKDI

Chain of co-activator AIB/ACTR (Q9Y6Q9 whole entry, one chain of several): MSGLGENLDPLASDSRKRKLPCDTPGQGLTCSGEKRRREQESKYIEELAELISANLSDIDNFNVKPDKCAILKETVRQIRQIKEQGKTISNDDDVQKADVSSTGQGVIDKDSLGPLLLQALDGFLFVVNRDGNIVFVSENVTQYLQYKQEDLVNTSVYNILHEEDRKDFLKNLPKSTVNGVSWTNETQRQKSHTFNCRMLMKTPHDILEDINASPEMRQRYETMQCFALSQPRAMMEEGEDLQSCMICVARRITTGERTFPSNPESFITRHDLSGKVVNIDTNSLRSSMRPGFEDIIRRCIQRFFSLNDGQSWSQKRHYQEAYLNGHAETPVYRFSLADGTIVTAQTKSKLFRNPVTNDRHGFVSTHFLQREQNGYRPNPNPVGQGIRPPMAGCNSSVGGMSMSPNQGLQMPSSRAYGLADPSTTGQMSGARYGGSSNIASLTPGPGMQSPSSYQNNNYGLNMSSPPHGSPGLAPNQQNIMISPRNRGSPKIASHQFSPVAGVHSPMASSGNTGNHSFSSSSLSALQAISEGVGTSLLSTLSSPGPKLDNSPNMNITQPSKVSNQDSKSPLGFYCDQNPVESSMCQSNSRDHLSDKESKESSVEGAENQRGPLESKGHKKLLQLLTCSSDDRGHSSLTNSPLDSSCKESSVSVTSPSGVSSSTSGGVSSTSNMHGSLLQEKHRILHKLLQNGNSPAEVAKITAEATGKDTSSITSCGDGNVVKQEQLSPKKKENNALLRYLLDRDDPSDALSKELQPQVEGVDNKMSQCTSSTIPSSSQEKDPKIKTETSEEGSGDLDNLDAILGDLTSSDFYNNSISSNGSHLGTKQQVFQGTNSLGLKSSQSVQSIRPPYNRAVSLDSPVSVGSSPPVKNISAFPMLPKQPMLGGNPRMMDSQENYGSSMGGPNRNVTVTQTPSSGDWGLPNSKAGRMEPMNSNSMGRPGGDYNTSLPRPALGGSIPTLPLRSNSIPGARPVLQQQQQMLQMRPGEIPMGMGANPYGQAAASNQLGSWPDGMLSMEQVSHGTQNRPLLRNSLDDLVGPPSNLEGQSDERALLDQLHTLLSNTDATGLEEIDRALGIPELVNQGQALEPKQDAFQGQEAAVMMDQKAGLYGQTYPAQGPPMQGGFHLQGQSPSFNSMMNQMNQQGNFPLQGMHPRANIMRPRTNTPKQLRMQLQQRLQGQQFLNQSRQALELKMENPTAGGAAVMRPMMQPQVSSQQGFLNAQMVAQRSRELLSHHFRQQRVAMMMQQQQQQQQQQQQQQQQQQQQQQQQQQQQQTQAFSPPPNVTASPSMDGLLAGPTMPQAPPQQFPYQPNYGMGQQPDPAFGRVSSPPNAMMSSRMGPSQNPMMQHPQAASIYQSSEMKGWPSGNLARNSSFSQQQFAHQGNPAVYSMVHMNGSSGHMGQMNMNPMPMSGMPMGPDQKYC

“SLIM3: LIM-domain protein of 279 amino acids, co-activator for nuclear receptors AR and ERβ” was tested, and the interaction with co-activator (co-activator AIB/ACTR) was “interacts” and the “additional super-induction of the reporter gene” value (androgen receptor) was “three-fold to five-fold”.

— patent publication US20020004209A1, “Use of SLIM3 for binding to molecules” (Schering Aktiengesellschaft Patents, priority 1999, published 2002)
